Data: PMC9691722

Target: HCV1406 TCR
Experiment: SPR; steady-state titration; TCR amine coupled to the sensor surface (1000-5000 RU), peptide/HLA-A2 injected at increasing concentrations, 5 μL/min, 25 °C, HBS-EP (10 mM HEPES, 150 mM NaCl, 3 mM EDTA, 0.005% surfactant P20, pH 7.4); 1:1 model; mutants globally fit alongside wild type with a shared RUmax

## NS3/HLA-A2 with Arg65 of HLA-A2 mutated to alanine (from UniProt P61769 21-119) (peptide-MHC)
  Kd: > 1500 µM
